Like-named read-outs stand apart in the source and are kept apart here. Blank lines part the entries; values can stand above or below the binder they belong to.
Legend:
HLA-A*0201 (human) [1] = experiment: competitive inhibition of 125I-labelled standard peptide binding to purified HLA, gel filtration; ratio = IC50 standard / IC50 test peptide
HLA-A*0201 (human) [2] = experiment: inhibition of 125I-labelled probe peptide binding to purified HLA-A*0201, gel filtration
HLA-A*0206 (human) = experiment: competition with 125I-labelled standard peptide for purified HLA, gel filtration; details: remark: other sources report otherwise; for binding affinity ratio: scale: ratio
HLA-A*0201 (human) [3] = experiment: inhibition of 125I-labelled standard peptide binding to purified HLA-A*0201, gel filtration
HLA-A*0201 (human) [4] = experiment: competitive inhibition of 125I-labelled standard peptide binding to purified HLA, gel filtration
HLA-A*0201 (human) [5] = experiment: competition with 125I-labelled standard peptide for purified HLA, gel filtration; details: remark: other sources report otherwise; scale: ratio
[6] = remark: other sources report otherwise

binding affinity ratio (HLA-A*0201 (human) [1]): 0.0001
B1: … (Kallikrein, position 53) (peptide)
peptide: VLVHPQWVLT
modifications: not checked

IC50 (HLA-A*0201 (human) [2]; [6]): < 200 nM
B2: PSA.117 … (peptide)
peptide: LMLLRLSEPA
modifications: not checked

binding affinity ratio (IC50 of standard peptide / IC50 of test peptide) (HLA-A*0206 (human)): 0.0002
B3: Kallikrein 146 … (peptide)
peptide: PALGTTCYA
modifications: not checked

binding affinity ratio (HLA-A*0201 (human) [1]): 0.0001
B4: … (PSA, position 134) (peptide)
peptide: VMDLPTQEPA
modifications: not checked

binding affinity ratio (IC50 of standard peptide / IC50 of test peptide) (HLA-A*0201 (human) [3]): 0.0002
B5: … (PAP, position 274) (peptide)
peptide: ATQIPSYKKL
modifications: not checked

IC50 (HLA-A*0201 (human) [2]; [6]): < 200 nM
B6: PSM.711 … (peptide)
peptide: ALFDIESKV
modifications: not checked

binding affinity ratio (ratio to standard peptide) (HLA-A*0201 (human) [4]): 0.0002
B7: … (PSM, position 193) (peptide)
peptide: KINCSGKIV
modifications: not checked

IC50 (HLA-A*0201 (human) [2]; [6]): < 200 nM
B8: PSA.166 … (peptide)
peptide: KLQCVDLHV
modifications: not checked

binding affinity ratio (HLA-A*0201 (human) [1]): 0.0001
B9: … (PSA, position 49) (peptide)
peptide: VLVHPQWVLT
modifications: not checked

binding affinity ratio (IC50 of standard peptide / IC50 of test peptide) (HLA-A*0201 (human) [3]): 0.0002
B10: … (PAP, position 372) (peptide)
peptide: CMTTNSHQGT
modifications: not checked

IC50 (HLA-A*0201 (human) [2]; [6]): < 200 nM
B11: PAP.135 … (peptide)
peptide: ILLWQPIPV
modifications: not checked

IC50 (HLA-A*0201 (human) [2]; [6]): < 200 nM
B12: PSM.667 … (peptide)
peptide: QLMFLERAFI
modifications: not checked

IC50 (HLA-A*0201 (human) [2]; [6]): < 200 nM
B13: PAP.284 … (peptide)
peptide: IMYSAHDTTV
modifications: not checked

binding affinity ratio (HLA-A*0201 (human) [5]): 0.0003 | binding affinity ratio (HLA-A*0206 (human)): -0.0001
B14: Kallikrein (hK2) peptide … (position 175, 9 amino acids) (peptide)
peptide: SLHLLSNDM
modifications: not checked

binding affinity ratio (HLA-A*0201 (human) [1]): 0.0003
B15: … (PSA, position 68) (peptide)
peptide: VILLGRHSL
modifications: not checked

IC50 (HLA-A*0201 (human) [2]; [6]): < 200 nM
B16: PSA.118 … (peptide)
peptide: MLLRLSEPA
modifications: not checked

binding affinity ratio (IC50 of standard peptide / IC50 of test peptide) (HLA-A*0201 (human) [3]): 0.0003
B17: … (PSA, position 62) (peptide)
peptide: CIRNKSVIL
modifications: not checked

binding affinity ratio (IC50 of standard peptide / IC50 of test peptide) (HLA-A*0201 (human) [3]): 0.0002
B18: … (PSA, position 180) (peptide)
peptide: CAQVHPQKV
modifications: not checked

binding affinity ratio (ratio to standard peptide) (HLA-A*0201 (human) [4]): 0.0002
B19: … (PSM, position 66) (peptide)
peptide: KAENIKKFL
modifications: not checked

binding affinity ratio (IC50 of standard peptide / IC50 of test peptide) (HLA-A*0201 (human) [3]): 0.0001
B20: … (PSA, position 131) (peptide)
peptide: AVKVMDLPT
modifications: not checked

binding affinity ratio (HLA-A*0201 (human) [1]): 0.0002
B21: … (PSM, position 115) (peptide)
peptide: VLLSYPNKT
modifications: not checked

IC50 (HLA-A*0201 (human) [2]; [6]): < 200 nM
B22: PSA.161 … (peptide)
peptide: FLTPKKLQCV
modifications: not checked

binding affinity ratio (HLA-A*0201 (human) [1]): 0.0001
B23: … (PSM, position 660) (peptide)
peptide: VLRMMNDQL
modifications: not checked

IC50 (HLA-A*0201 (human) [2]): < 200 nM
B24: PSM.663 … (peptide)
peptide: MMNDQLMFL
modifications: not checked

IC50 (HLA-A*0201 (human) [2]; [6]): < 200 nM
B25: PSA.143 ALGTTCYA (peptide)
peptide: ALGTTCYA
modifications: not checked

binding affinity ratio (HLA-A*0201 (human) [1]): 0.0003
B26: … (PSM, position 660) (peptide)
peptide: VLRMMNDQLM
modifications: not checked

IC50 (HLA-A*0201 (human) [2]; [6]): < 200 nM
B27: HuK2.165 … (peptide)
peptide: FLRPRSLQCV
modifications: not checked

IC50 (HLA-A*0201 (human) [2]; [6]): < 200 nM
B28: PAP.299 … (peptide)
peptide: ALDVYNGLL
modifications: not checked

binding affinity ratio (IC50 of standard peptide / IC50 of test peptide) (HLA-A*0201 (human) [3]): 0.0002
B29: … (PSM, position 365) (peptide)
peptide: AVEPDRYVIL
modifications: not checked

binding affinity ratio (IC50 of standard peptide / IC50 of test peptide) (HLA-A*0201 (human) [3]): 0.0001
B30: CIRNKSVI (PSA, position 62) (peptide)
peptide: CIRNKSVI
modifications: not checked

binding affinity ratio (IC50 of standard peptide / IC50 of test peptide) (HLA-A*0201 (human) [3]): 0.0001
B31: … (PSA, position 180) (peptide)
peptide: CAQVHPQKVT
modifications: not checked

binding affinity ratio (ratio to standard peptide) (HLA-A*0201 (human) [4]): 0.0001
B32: … (PSM, position 200) (peptide)
peptide: IVIARYGKV
modifications: not checked

IC50 (HLA-A*0201 (human) [4]; [6]): 50 nM
B33: peptide 1419.13 … (HuK2.120.V11) (peptide)
peptide: DLMLLRLSEPV
modifications: not checked

IC50 (HLA-A*0201 (human) [2]; [6]): < 200 nM
B34: PAP.92 … (peptide)
peptide: FLNESYKHEQV
modifications: not checked

binding affinity ratio (HLA-A*0201 (human) [1]): 0.0001
B35: VISNDVCA (PSA, position 174) (peptide)
peptide: VISNDVCA
modifications: not checked

binding affinity ratio (IC50 of standard peptide / IC50 of test peptide) (HLA-A*0201 (human) [3]; [6]): 0.0002
B36: … (Kallikrein, position 234) (peptide)
peptide: CALPEKPAV
modifications: not checked

IC50 (HLA-A*0201 (human) [2]; [6]): < 200 nM
B37: PSM.288 … (peptide)
peptide: GLPSIPVHPI
modifications: not checked

binding affinity ratio (IC50 of standard peptide / IC50 of test peptide) (HLA-A*0201 (human) [3]): 0.0001
B38: … (PSA, position 230) (peptide)
peptide: CALPERPSL
modifications: not checked

IC50 (HLA-A*0206 (human)): 40 nM
B39: peptide 1126.06 (PSM.662) (peptide)
peptide: RMMNDQLMFL
modifications: not checked

binding affinity ratio (HLA-A*0201 (human) [1]): 0.02
B40: … (Kallikrein, position 53) (peptide)
peptide: VLVHPQWVL
modifications: not checked

IC50 (HLA-A*0201 (human) [2]; [6]): < 200 nM
B41: PSM.26 … (peptide)
peptide: LVLAGGFFL
modifications: not checked

binding affinity ratio (IC50 of standard peptide / IC50 of test peptide) (HLA-A*0201 (human) [3]): 0.0001
B42: … (PSA, position 169) (peptide)
peptide: CVDLHVISNDV
modifications: not checked

binding affinity ratio (IC50 of standard peptide / IC50 of test peptide) (HLA-A*0201 (human) [3]): 0.0001
B43: … (PSM, position 365) (peptide)
peptide: AVEPDRYVI
modifications: not checked

IC50 (HLA-A*0201 (human) [2]): < 200 nM
B44: PSA.118 … (peptide)
peptide: MLLRLSEPAEL
modifications: not checked

binding affinity ratio (HLA-A*0201 (human) [1]): 0.02
B45: … (PSA, position 49) (peptide)
peptide: VLVHPQWVL
modifications: not checked

binding affinity ratio (HLA-A*0201 (human) [1]): 0.0001
B46: … (PSM, position 12) (peptide)
peptide: VATARRPRWL
modifications: not checked

IC50 (HLA-A*0201 (human) [2]): < 200 nM
B47: PSM.469 … (peptide)
peptide: LMYSLVHNL
modifications: not checked

binding affinity ratio (HLA-A*0201 (human) [1]; [6]): 0.0008
B48: … (PSA, position 174) (peptide)
peptide: VISNDVCAQV
modifications: not checked

binding affinity ratio (HLA-A*0201 (human) [1]): 0.0002
B49: … (PSM, position 603) (peptide)
peptide: VLRKYADKI
modifications: not checked

binding affinity ratio (HLA-A*0201 (human) [1]): 0.0002
B50: … (PSM, position 358) (peptide)
peptide: VIGTLRGAV
modifications: not checked

IC50 (HLA-A*0201 (human) [2]; [6]): < 200 nM
B51: HuK2.175 … (peptide)
peptide: SLHLLSNDMCA
modifications: not checked

binding affinity ratio (IC50 of standard peptide / IC50 of test peptide) (HLA-A*0201 (human) [3]): 0.0001
B52: … (PSA, position 62) (peptide)
peptide: CIRNKSVILL
modifications: not checked

binding affinity ratio (ratio to standard peptide) (HLA-A*0201 (human) [4]; [6]): 0.0003
B53: … (Kallikrein, position 226) (peptide)
peptide: ITSWGPEPCAL
modifications: not checked

binding affinity ratio (HLA-A*0201 (human) [1]): 0.0001
B54: VLVHPQWV (PSA, position 49) (peptide)
peptide: VLVHPQWV
modifications: not checked

IC50 (HLA-A*0201 (human) [2]; [6]): < 200 nM
B55: PSM.27 … (peptide)
peptide: VLAGGFFLL
modifications: not checked

IC50 (HLA-A*0201 (human) [2]): < 200 nM
B56: PAP.112 … (peptide)
peptide: TLMSAMTNL
modifications: not checked

binding affinity ratio (ratio to standard peptide) (HLA-A*0201 (human) [4]): 0.0001
B57: … (PSM, position 723) (peptide)
peptide: KAWGEVKRQI
modifications: not checked

binding affinity ratio (IC50 of standard peptide / IC50 of test peptide) (HLA-A*0201 (human) [3]): 0.0003
B58: AVCGGVLV (PSA, position 44) (peptide)
peptide: AVCGGVLV
modifications: not checked

IC50 (HLA-A*0201 (human) [2]; [6]): < 200 nM
B59: PSM.662 … (peptide)
peptide: RMMNDQLMFL
modifications: not checked

binding affinity ratio (IC50 of standard peptide / IC50 of test peptide) (HLA-A*0206 (human)): 0.0002
B60: PSA 142 … (peptide)
peptide: PALGTTCYA
modifications: not checked

IC50 (HLA-A*0201 (human) [2]): < 200 nM
B61: PAP.6 … (peptide)
peptide: LLLARAASLSL
modifications: not checked

IC50 (HLA-A*0201 (human) [2]; [6]): < 200 nM
B62: PAP.21 … (peptide)
peptide: LLFFWLDRSV
modifications: not checked

IC50 (HLA-A*0201 (human) [2]; [6]): < 200 nM
B63: PSM.168 … (peptide)
peptide: GMPEGDLVYV
modifications: not checked

binding affinity ratio (HLA-A*0201 (human) [5]): 0.0023 | binding affinity ratio (HLA-A*0206 (human)): 0.0002
B64: … (PSA, position 119, 11 amino acids) (peptide)
peptide: LLRLSEPAELT
modifications: not checked

IC50 (HLA-A*0201 (human) [2]; [6]): < 200 nM
B65: PAP.30 … (peptide)
peptide: VLAKELKFV
modifications: not checked

IC50 (HLA-A*0201 (human) [2]; [6]): < 200 nM
B66: PSM.441 … (peptide)
peptide: LLQERGVAYI
modifications: not checked

binding affinity ratio (HLA-A*0201 (human) [1]): 0.0008
B67: … (PAP, position 262) (peptide)
peptide: VLVNEILNHM
modifications: not checked

binding affinity ratio (HLA-A*0201 (human) [1]): 0.0001
B68: … (PSM, position 447) (peptide)
peptide: VAYINADSSI
modifications: not checked
